The source of these data is US20040258705A1, “Use of lectins to promote oligomerization of glycoproteins and antigenic molecules” (Antigenics Inc., priority 2003, published 2004).

The test system of assay [1] is Meth A-specific CD4+ T cell clone 24D3 with irradiated BALB/c splenocytes. Put plainly: Meth A in vitro antigen representation assay. Format: cell-based, mouse (BALB/c). The settings on record: Meth A gp96; versus matched preparation without buffer exchange; IL-5 ELISA. The text has this: Materials: irradiated BALB/c splenocytes were used as the Antigen Presenting Cells (APCs). The Meth A-specific CD4^+ T cell clone, 24D3, was used. They are restricted by the MHClI molecule I-Ed, and are specific for the antigenic peptide contained within the sequence […]. The medium used for this assay was RPMI 1640 (Gibco-BRL). […] The wild-type form of the L 1 peptide ([…]) was used as a negative control, and the mutated form of the L11 peptide ([…]) was used as the positive control.
The resulting supernatant was further purified using Con A and DEAE chromatography.
Re-Presentation Assay: 2×104 of Meth A specific CD4^+ T cell clones (24D3) were incubated with 5×105 of irradiated BALB/c splenic APCs in the presence of various concentration of gp96 derived from Meth A or other sources (100, 50, 25, 12.5, 6.25 μg/ml final concentration) for 48-72 hrs in the 96 well flat bottom plate in 200 μl of final volume. Wild type ribosomal protein L11 peptide and mutated ribosomal protein L11 peptide were added in replicate wells and used as a negative control or positive control respectively. After 48-72 hours of incubation at 37° C., 5% CO2, 100 μl of supernatant was taken and IL-5 production was measured by ELISA.
(In general: ELISA stands for enzyme-linked immunosorbent assay.)

For assay [2], the system named is Meth A cells. Put plainly: In vivo Meth A tumor inhibition (tumor protection / rejection) assay. Also noted: species or system BALB/c mice. The settings on record: Meth A gp96, dose of 10 μg intradermally day 0 and 7; versus matched preparation without buffer exchange. On the procedure:
In vivo Meth A growth inhibition assay: BALB/c mice (n=30/group) were immunized on day 0 and day 7 with 10 or 50 μg of gp96 intradermally in the flank. On study day 14, mice were challenged with 1×10^5 Meth A cells intradermally in a total volume of 100 μl. Growing tumors were monitored during the subsequent four weeks. All animals were euthanized on study day 41 after a final tumor measurement. Data was reported as percentage of animals that are tumor-free on study day 41. Control groups included un-immunized (diluent—negative control) and immunized with irradiated Meth A cells (positive control).
In vivo Meth A growth inhibition assay: BALB/c mice (n=10/group) were immunized on day 0 and day 7 with 10 μg of gp96 intradermally in the flank. On study day 14, mice were challenged with 1×10^5 Meth A cells intradermally in a total volume of 100 gl. Growing tumors were monitored during the subsequent four weeks. All animals were euthanized on study day 41 after a final tumor measurement. Data was reported as percentage of animals that are tumor-free on study day 41. Control groups included un-immunized (diluent—negative control) and immunized with irradiated Meth A cells (positive control).
(§1) In vivo Meth A growth inhibition assay: BALB/c mice (n=10/group) were immunized on day 0 and day 7 with 10 μg of gp96 intradermally in the flank. On study day 14, mice were challenged with 1×10^5 Meth A cells intradermally in a total volume of 100 μl. Growing tumors were monitored during the subsequent four weeks. All animals were euthanized on study day 41 after a final tumor measurement. Data was reported as percentage of animals that are tumor-free on study day 41. Control groups included un-immunized (diluent—negative control) and immunized with irradiated Meth A cells (positive control).
as §1, with “with 0.3 or 3” for “with 10”, “gp96 alone or in combination with Con A” for “gp96”

B1: Meth A gp96 (Bx): Meth A gp96 prepared with buffer exchange step between Con A and DEAE columns, increased Con A content (protein, UniProt P08113 22-802, looked up)
Endoplasmin: DDEVDVDGTVEEDLGKSREGSRTDDEVVQREEEAIQLDGLNASQIRELREKSEKFAFQAEVNRMMKLIINSLYKNKEIFLRELISNASDALDKIRLISLTDENALAGNEELTVKIKCDKEKNLLHVTDTGVGMTREELVKNLGTIAKSGTSEFLNKMTEAQEDGQSTSELIGQFGVGFYSAFLVADKVIVTSKHNNDTQHIWESDSNEFSVIADPRGNTLGRGTTITLVLKEEASDYLELDTIKNLVRKYSQFINFPIYVWSSKTETVEEPLEEDEAAKEEKEESDDEAAVEEEEEEKKPKTKKVEKTVWDWELMNDIKPIWQRPSKEVEEDEYKAFYKSFSKESDDPMAYIHFTAEGEVTFKSILFVPTSAPRGLFDEYGSKKSDYIKLYVRRVFITDDFHDMMPKYLNFVKGVVDSDDLPLNVSRETLQQHKLLKVIRKKLVRKTLDMIKKIADEKYNDTFWKEFGTNIKLGVIEDHSNRTRLAKLLRFQSSHHSTDITSLDQYVERMKEKQDKIYFMAGSSRKEAESSPFVERLLKKGYEVIYLTEPVDEYCIQALPEFDGKRFQNVAKEGVKFDESEKTKESREATEKEFEPLLNWMKDKALKDKIEKAVVSQRLTESPCALVASQYGWSGNMERIMKAQAYQTGKDISTNYYASQKKTFEINPRHPLIRDMLRRIKEDEDDKTVMDLAVVLFETATLRSGYLLPDTKAYGDRIERMLRLSLNIDPEAQVEEEPEEEPEDTSEDAEDSEQDEGEEMDAGTEEEEEETEKESTEKDEL
modifications: tumor-derived; contains Con A
notes: Meth A gp96 prepared with buffer exchange step between Con A and DEAE columns, increased Con A content
Turning to B1, in assay [1], the “in vitro activity in the Meth A representation assay” value was “higher in vitro antigen representation”. The “in vivo tumor protection activity” value in assay [2] is on record as “higher in vivo tumor protection activity”.
